Data on two molecules can be found in US10106589B2, “Compositions and methods for immunomodulation” (FUNDACIO INSTITUT D'INVESTIGACIO BIOMEDICA DE BELLVITGE …, priority 2011, dated 2018).

One experiment has as its system allogeneic CD3+ T cells. In words: Mixed leukocyte reaction ([3H]-thymidine incorporation). It counts as cell-based, human. Further details: key to Alloproliferation (T CD3^+): (−) negligible; (+) low; (++) moderate; (+++) high. How it is done:
CD3^+ T cells (10^5/well) and C4BP-treated (α7β1 and α7β0), or Factor H-treated, and LPS-activated Mo-DCs were seeded in a 96-well round-bottom plate at various DC:T cell ratios (1:40, 1:80 and 1:160) and cultured in X-VIVO 15 medium (Biowittaker, Walkersville, Md.) supplemented with 100 μg/ml of streptomycin, 100 IU/ml of penicillin and 2 mM L-glutamine (all from Invitrogen) plus 2% Human AB Serum. Allospecific proliferation was measured after 5 days of incubation. At day 4, the […] [^3H]-thymidine (1 μCi/well, Perkin Elmer, Boston, Mass.) was added, followed by incubation for another 16 h. Labeled cells were then harvested onto glass-fiber filters with a Filtermate Harvester (Packard, Meriden, Conn.), and the T cell proliferation rate was determined by the amount of [^3H]-thymidine incorporation, which was measured in a TopCount NXT counter (Packard). Results are reported as the mean cpm±SD of thymidine incorporation in quadruplicate culture wells.
On the technique in general: Uptake of a labelled nucleoside into DNA is a usual measure of proliferation.

Experiment [1] deals with human Mo-DCs. In words: Chemotaxis transwell assay towards CCL21. It counts as cell-based. The note with it: for migration of LPS-matured Mo-DCs towards the chemokine CCL21: transwell, 2 h. Further details: key to Chemotaxis (CCL21): (−) negligible; (+) low; (++) moderate; (+++) high. How it is done: Mo-DCs differentiated and matured (LPS for 48 h) in presence of the C4BP isoforms α7β1, α7β0, or Factor H, were tested for migration toward the CCL21 chemokine using transwell assays. Briefly, the lower chambers of transwell plates (polycarbonate filters of 8.0 μm pore size; Costar, Corning, N.Y.) were filled with 400 μl of complete RPMI with or without CCL21 (200 ng/ml). A total of 1×10^5 DCs in 100 μl of complete RPMI were added into the upper chamber, and cells were incubated at 37° C. for 2 h. Cells migrated into the lower chambers were harvested and counted with a FACScalibur flow cytometer acquiring events for a fixed time period of 2 min using CellQuest software (Becton Dickinson). The migration assays for all stimulation conditions were performed in duplicate wells. Values are given as percentage of migrated cells relative to the untreated, mDCs (100%).

The next experiment has as its system LPS-matured human Mo-DCs. In words: DC cytokine secretion (Th1/Th2 Flow cytomix Multiplex). Further details: key to IL-12 / IL-6 / IL-8 / IL-10 / TNF-α / IFN-γ: (−) negligible; (+) low; (++) moderate; (+++) high. Format: cell-based. How it is done: Concentrations of IL-12p70, TNF-α, IFN-γ, IL-10, IL-6 and IL-8, were determined from DC supernatants treated with the C4BP isoforms α7β1 and α7β0 using the Th1/Th2 Flow cytomix Multiplex kit (Bender-Medsystems, Viena, Austria), according to the manufacturer's instructions.

For experiment [2], the system named is human Mo-DCs. In words: Flow cytometry of cell surface markers on treated, LPS-matured Mo-DCs. It counts as cell-based. Details: key to HLA-DR / CD40 / CD83 / CD86 / CD14 / CD1a / CCR7: (−) negligible; (+) low; (++) moderate; (+++) high. On the procedure:
Peripheral blood mononuclear cells (PBMCs) were obtained from buffy coat preparations belonging to healthy donors from the Blood and Tissue Bank (Barcelona, Spain) after Ficoll-Paque™ density centrifugation (GE Healthcare Bio-Sciences AB; Uppsala, Sweden). Monocytes were purified by two different methods: 1) Cells were plated at 1×10^6 cells/ml in 60 mm culture plates (Corning, Spain) in RPMI without serum and allowed to adhere for 2 h at 37° C. in 5% CO2. The non-adherent cells were removed by washing in PBS. […] 2) Cells were purified using colloidal super-paramagnetic microbeads conjugated with monoclonal mouse anti-human CD14 antibodies (MACS, Miltenyi Biotec, Auburn, Calif., or EasySep® Positive Selection Cocktail, StemCell Technologies, Grenoble, France). The purity of CD14^+ cells was tested by CD14 staining and flow cytometry analysis (>90% CD14^+ cells). Monocyte-derived DCs (Mo-DCs) were generated supplementing the monocyte cultures with complete RPMI 1640 medium plus GM-CSF (800 UI/ml) and IL-4 (500 UI/ml) (both from Gentaur, Kampenhout, Belgium) at day 0 and day 3 of culture. For DC maturation, at day 5 iDCs were further stimulated for 48 h with 5 μg/ml LPS (Escherichia coli 055.B5, Sigma L2880, Copenhagen, Denmark).
Cell surface phenotypes were analyzed using the following monoclonal antibodies: FITC-conjugated anti-HLA-DR (Immu-357), FITC-conjugated anti-CD83 (HB15a), FITC-conjugated anti-CD14 (RMO52), PE-conjugated anti-CD40 (MAB89), PE-conjugated anti-CD1a (BL6), PE-conjugated anti-CD80 (MAB104), PE-conjugated anti-CD86 (HA5.2B7) (all from Beckman-Coulter), Alexa Fluor 488-conjugated anti-CCR7 (TG8/CCR7, Biolegend, San Diego, Calif.), and the respective isotype controls from the same commercial sources. After washing with PBS, cells were subsequently stained with 3 μl MoAb/10^5 cells in 100 μl of FACS buffer (PBS containing 1% BSA and 0.1% sodium azide) for 20 min at room temp. Stained cells were analysed using a FACScalibur (Becton Dickinson). Mo-DCs were gated according to forward scatter (FSC) and side scatter (SSC) parameters. The results were analysed using CellQuestPro software (Becton Dickinson).
Both the different C4BP isoforms (α7β1, α7β0 and α6β0), and Factor H were added at 2, 5 and 10 μg/ml throughout Mo-DC differentiation, maturation, or both. Namely, for the differentiation assays the proteins were added at day 0 and replenished at day 3. For the maturation assays the proteins were added at day 5, either alone or combined with LPS. Finally, for the differentiation plus maturation assays the proteins were added at days 0, 3 and 5 (at the last time point, combined with LPS).
Background: Flow cytometry measures light scatter and fluorescence of single cells or particles in a stream.

Where [3] appears, read: functional assay, treated and LPS-induced DCs.
Where [4] appears, read: cytokine, treated and LPS-induced DCs.
Where [5] appears, read: pre-treated at 2 μg/ml, matured with LPS.
The mark [6] stands for this setting: surface marker, treated and LPS-induced DCs.
Where [7] appears, read: treated throughout differentiation and maturation, LPS-matured.

B1: C4BP α7β1: major C4BP isoform, 7 identical α-chains and 1 β-chain, purified from pooled human plasma (protein, UniProt P04003 49-597; P20851 18-252, looked up)
C4b-binding protein alpha …: NCGPPPTLSFAAPMDITLTETRFKTGTTLKYTCLPGYVRSHSTQTLTCNSDGEWVYNTFCIYKRCRHPGELRNGQVEIKTDLSFGSQIEFSCSEGFFLIGSTTSRCEVQDRGVGWSHPLPQCEIVKCKPPPDIRNGRHSGEENFYAYGFSVTYSCDPRFSLLGHASISCTVENETIGVWRPSPPTCEKITCRKPDVSHGEMVSGFGPIYNYKDTIVFKCQKGFVLRGSSVIHCDADSKWNPSPPACEPNSCINLPDIPHASWETYPRPTKEDVYVVGTVLRYRCHPGYKPTTDEPTTVICQKNLRWTPYQGCEALCCPEPKLNNGEITQHRKSRPANHCVYFYGDEISFSCHETSRFSAICQGDGTWSPRTPSCGDICNFPPKIAHGHYKQSSSYSFFKEEIIYECDKGYILVGQAKLSCSYSHWSAPAPQCKALCRKPELVNGRLSVDKDQYVEPENVTIQCDSGYGVVGPQSITCSGNRTWYPEVPKCEWETPEGCEQVLTGKRLMQCLPNPEDVKMALEVYKLSLEIEQLELQRDSARQSTLDKEL
C4b-binding protein beta chain: SDAEHCPELPPVDNSIFVAKEVEGQILGTYVCIKGYHLVGKKTLFCNASKEWDNTTTECRLGHCPDPVLVNGEFSSSGPVNVSDKITFMCNDHYILKGSNRSQCLEDHTWAPPFPICKSRDCDPPGNPVHGYFEGNNFTLGSTISYYCEDRYYLVGVQEQQCVDGEWSSALPVCKLIQEAPKPECEKALLAFQESKNLCEAMENFMQQLKESGMTMEELKYSLELKKAELKAKLL
With B1, in the experiment with allogeneic CD3+ T cells (Mo-DCs pre-incubated and matured with LPS, DC:T 1:40, 1:80, 1:160, 5 days), the “allogeneic T cell proliferation” value is reported as “maximal allogeneic T cell proliferation”. In addition, the “migration of LPS-matured Mo-DCs towards the chemokine CCL21” value with human Mo-DCs [1] is reported as “maximal migration”. In the experiment with LPS-matured human Mo-DCs (pre-treated Mo-DCs matured with LPS, C4BP 2 μg/ml, Factor H 5 μg/ml), the “release of cytokines (IL-12p70, IL-10, IL-8, IL-6, TNF-α, IFN-γ)” value is “the same cytokine levels than untreated Mo-DCs”. The “expression of surface markers (CD14, HLA-DR, CD40, CD80, CD83, CD86, CD1a)” value with human Mo-DCs [2] (treated throughout differentiation and maturation, LPS-matured, vs untreated mDC) is given as “no effect”.

B2: C4BP (β^−): C4BP isoforms lacking beta chain: C4BP (α7β0) or C4BP (α6β0) (protein, UniProt P04003 49-597, looked up)
C4b-binding protein alpha …: B1 C4b-binding protein alpha …
Take B2: the “Alloproliferation (T CD3^+)” value with allogeneic CD3+ T cells (setting [3]) is given as “+”. Moreover, the “Chemotaxis (CCL21)” value with human Mo-DCs [1] (setting [3]) is given as “−”. In addition, the “migration of LPS-matured Mo-DCs towards the chemokine CCL21” value with human Mo-DCs [1] is “halted the migration”. Besides, in the experiment with LPS-matured human Mo-DCs (setting [4]), the IFN-γ entry is recorded as “−”, the IL-6 result is reported as “+”, the IL-8 result is “++” and the IL-10 entry is listed as “+++”. For the same molecule, in the experiment on LPS-matured human Mo-DCs (setting [4]), the IL-12 result is given as “−” and the TNF-α entry is listed as “+”. Besides, in the experiment with LPS-matured human Mo-DCs (setting [5]), the “production of IL-10” value is “increased the production”, the “release of IFN-γ” value is given as “prevented the release”, the “release of IL-6” value was “reduced the release” and the “release of IL-8” value is given as “reduced the release”. For the same molecule, in the experiment with LPS-matured human Mo-DCs (setting [5]), the “release of IL-12p70” value is “prevented the release” and the “release of TNF-α” value was “prevented the release”. Further, the “surface receptor CCR7 on Mo-DCs” value with human Mo-DCs [2] (flow cytometry (MFI), LPS-matured) is listed as “consistent down-regulation”. Also, in the experiment with human Mo-DCs [2] (setting [6]), the CCR7 entry is reported as “++”, the CD1a result is given as “+”, the CD14 entry is “+” and the CD40 entry is given as “++”. Further, in the experiment with human Mo-DCs [2] (setting [6]), the CD83 entry is “+”, the CD86 entry is given as “+” and the HLA-DR result was “+++”. Besides, in the experiment on human Mo-DCs [2] (setting [7]), the CD40 expression result was “unaltered” and the HLA-DR expression result is “unaltered”.
